Measurements: patent publication US20230183291A1, “ANTI-INFECTIVE BICYCLIC PEPTIDE LIGANDS” (priority 2020, published 2023)
Numbered stars: 1 amine (or outer) side, 2 acyl side, 3 side chain; on linkers, the order of the positions; unused ones are H or OH. Bridge positions count the residues as written; N and C are the ends. Square brackets hold non-standard residues; d marks the D form. Primed or numbered codes have the meaning given here. Ends that are not written are not given here. Arg(Me)′ = delta-N-methyl arginine, CN(CCC[C@H](N[*:1])C(=O)[*:2])C(=N)N; TATA = O=C(CC[*:1])N1CN(C(=O)CC[*:2])CN(C(=O)CC[*:3])C1; 1Nal = N[C@@H](Cc1cccc2ccccc12)C(=O)O; 2Nal = N[C@@H](Cc1ccc2ccccc2c1)C(=O)O; hArg = N=C(N)NCCCC[C@H](N)C(=O)O; Aib = CC(C)(N)C(=O)O; Sar = CNCC(=O)O

What follows are binders tested against ACE2 protein (Homo sapiens (Human)), Q9BYF1 (assay: fluorescence polarisation direct binding, 1 nM fluorescein tracer, ACE2 titrated).
ACE2 protein (Homo sapiens (Human)), Q9BYF1, sequence (Q9BYF1 18-740 limits assumed): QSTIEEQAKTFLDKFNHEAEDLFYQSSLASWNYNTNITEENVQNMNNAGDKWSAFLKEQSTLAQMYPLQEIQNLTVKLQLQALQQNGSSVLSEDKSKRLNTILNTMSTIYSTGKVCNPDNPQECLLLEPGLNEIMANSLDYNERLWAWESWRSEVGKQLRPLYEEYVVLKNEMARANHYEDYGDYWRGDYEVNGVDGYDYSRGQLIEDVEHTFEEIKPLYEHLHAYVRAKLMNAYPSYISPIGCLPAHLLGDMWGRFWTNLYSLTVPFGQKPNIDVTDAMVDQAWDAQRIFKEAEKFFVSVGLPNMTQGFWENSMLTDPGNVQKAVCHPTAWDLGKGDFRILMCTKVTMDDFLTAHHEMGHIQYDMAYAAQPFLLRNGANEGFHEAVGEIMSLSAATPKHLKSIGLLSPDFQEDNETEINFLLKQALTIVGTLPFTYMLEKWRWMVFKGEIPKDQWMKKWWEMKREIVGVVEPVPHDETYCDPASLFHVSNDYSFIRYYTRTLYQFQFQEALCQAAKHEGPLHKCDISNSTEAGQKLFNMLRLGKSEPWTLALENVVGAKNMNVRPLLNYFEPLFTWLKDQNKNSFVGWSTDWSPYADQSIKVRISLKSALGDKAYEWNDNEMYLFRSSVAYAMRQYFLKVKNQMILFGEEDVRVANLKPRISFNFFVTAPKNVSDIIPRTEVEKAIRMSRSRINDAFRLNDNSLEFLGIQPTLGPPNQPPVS

| Kd [nM] | Binder |
| --- | --- |
| 50.7 | ACNAVLCS[2Nal]ARANSFCA[Sar][Sar][Sar][Sar][Sar][Sar]K(fluorescein) (linker 2-7-16 via TATA) [BCY16867] |
| 5.8 | ACAN[Aib]VLCSWARANSFCA[Sar][Sar][Sar][Sar][Sar][Sar]K(fluorescein) (linker 2-8-17 via TATA) [BCY16871] |
| 20.4 | ACAPILCRWAERQGYCA[Sar][Sar][Sar][Sar][Sar][Sar]K(fluorescein) (linker 2-7-16 via TATA) [BCY15419] |
| 21.9 | ACVRSHCSSLLPRIHCA[Sar][Sar][Sar][Sar][Sar][Sar]K(fluorescein) (linker 2-7-16 via TATA) [BCY15283] |
| 2.9 | ACNAVLCSW[Aib]RANSFCA[Sar][Sar][Sar][Sar][Sar][Sar]K(fluorescein) (linker 2-7-16 via TATA) [BCY16872] |

Second part, the binder before the results:

| Binder | Kd [nM] |
| --- | --- |
| ACGRQFCHTLMPRHLCA[Sar][Sar][Sar][Sar][Sar][Sar]K(fluorescein) (linker 2-7-16 via TATA) [BCY15284] | 65.5 |
| ACPSQYKCWRGKCA[Sar][Sar][Sar][Sar][Sar][Sar]K(fluorescein) (linker 2-8-13 via TATA) [BCY15421] | 134 |
| ACLEVYKCWRGKCA[Sar][Sar][Sar][Sar][Sar][Sar]K(fluorescein) (linker 2-8-13 via TATA) [BCY15422] | 130 |
| ACHKFPCRDPQQYLFCA[Sar][Sar][Sar][Sar][Sar][Sar]K(fluorescein) (linker 2-7-16 via TATA) [BCY15288] | 225 |
| ACNAVLCSWA[hArg]ANSFCA[Sar][Sar][Sar][Sar][Sar][Sar]K(fluorescein) (linker 2-7-16 via TATA) [BCY16874] | 62 |
| ACTRPWCHSLLPRATCA[Sar][Sar][Sar][Sar][Sar][Sar]K(fluorescein) (linker 2-7-16 via TATA) [BCY15285] | 157 |
| ACNAVLCS[1Nal]ARANSFCA[Sar][Sar][Sar][Sar][Sar][Sar]K(fluorescein) (linker 2-7-16 via TATA) [BCY16866] | 2.6 |
| ACLELYQCWRGKCA[Sar][Sar][Sar][Sar][Sar][Sar]K(fluorescein) (linker 2-8-13 via TATA) [BCY15420] | 98.3 |
| ACNAVLCSWARANSFCA[Sar][Sar][Sar][Sar][Sar][Sar]K(fluorescein) (linker 2-7-16 via TATA) [BCY15423] | 5.53 |

The binders below were run against Biotinylated Human ACE2, His, Avitag protein (ACROBiosystems, AC2-H82E6) (human), Q9BYF1 (assay: SPR single cycle kinetics, ACE2 captured on CAP chip, peptide analyte; geometric mean).
Biotinylated Human ACE2, His, Avitag protein (ACROBiosystems, AC2-H82E6) (human), Q9BYF1, sequence (Q9BYF1 18-740 limits assumed): as above

| Kd [nM] | Binder |
| --- | --- |
| 7.7 | ACAN[Aib]VLCSWARANSFCA[Sar][Sar][Sar][Sar][Sar][Sar]K(fluorescein) (linker 2-8-17 via TATA) [BCY16871] |
| 8.9 | ACNAVLCSW[Aib]RANSFCA[Sar][Sar][Sar][Sar][Sar][Sar]K(fluorescein) (linker 2-7-16 via TATA) [BCY16872] |

Second part, the binder before the results:

| Binder | Kd [nM] |
| --- | --- |
| ACNAVLCSWA[hArg]ANSFCA[Sar][Sar][Sar][Sar][Sar][Sar]K(fluorescein) (linker 2-7-16 via TATA) [BCY16874] | 4.1 |
| ACNAVLCS[1Nal]ARANSFCA[Sar][Sar][Sar][Sar][Sar][Sar]K(fluorescein) (linker 2-7-16 via TATA) [BCY16866] | 2.1 |
| ACNAVLCSWA[Arg(Me)′]ANSFCA[Sar][Sar][Sar][Sar][Sar][Sar]K(fluorescein) (linker 2-7-16 via TATA) [BCY16863] | 3.5 |
| ACNAVLCSWARANSFCA[Sar][Sar][Sar][Sar][Sar][Sar]K(fluorescein) (linker 2-7-16 via TATA) [BCY15423] | 3.4 |
